Test: soluble fraction after stress (log2 fold change); higher = more stays soluble; pooled small domains, quantitative proteomics
Conditions: stress: pH 4
How it was run: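 Values are on a log2 scale, where higher means more of the domain stayed soluble after pH 4 stress. They are fold changes in the soluble amount of each domain from pooled custom libraries, measured by high-throughput quantitative proteomics. The fold change is taken to reflect aggregation propensity.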

HMYYIITNGKYWVIENPIRPGEYMESTKSSNAKQFTFKQAKNLLNARSKKLGWIRNGYSMVGED
soluble fraction (log2): 0.427
